Experimental data: patent US6100053A, “Microbial transglutaminases, their production and use” (priority 1994, dated 2000)

Biological target: α-casein

| Substance | Units/ml (putrescine assay) |
| --- | --- |
| transglutaminase preparation (culture broth) of Alternaria alternata (pool or library) | 0.16 Units/ml |
| transglutaminase preparation (culture broth) of Antrodia serialis (pool or library) | 0.8 Units/ml |
| transglutaminase preparation (culture broth) of Ascotricha erinacea (pool or library) | 0.15 Units/ml |
| transglutaminase preparation (culture broth) of Aspergillus heteromorphus (pool or library) | 0.12 Units/ml |
| transglutaminase preparation (culture broth) of Aspergillus puniceus (pool or library) | 0.12 Units/ml |
| transglutaminase preparation (culture broth) of Auricularia polytricha (pool or library) | 0.18 Units/ml |
| transglutaminase preparation (culture broth) of Cercospora beticola (pool or library) | 1.58 Units/ml |
| transglutaminase preparation (culture broth) of Cercospora carisis (pool or library) | 13 Units/ml |
| transglutaminase preparation (culture broth) of Cercospora hayi (pool or library) | 0.26 Units/ml |
| transglutaminase preparation (culture broth) of Cercospora sesami (pool or library) | 0.24 Units/ml |
| transglutaminase preparation (culture broth) of Chaetomium funicolum (pool or library) | 0.16 Units/ml |
| transglutaminase preparation (culture broth) of Cladosporium resinae (pool or library) | 0.14 Units/ml |
| transglutaminase preparation (culture broth) of Cunninghamella elegans (pool or library) | 0.23 Units/ml |
| transglutaminase preparation (culture broth) of Dimorphosporum disporatrichum (pool or library) | 0.42 Units/ml |
| transglutaminase preparation (culture broth) of Fusarium armeniacum (pool or library) | 0.19 Units/ml |
| transglutaminase preparation (culture broth) of Fusarium decemcellulare (pool or library) | 0.1 Units/ml |
| transglutaminase preparation (culture broth) of Fusarium dimerum (pool or library) | 0.25 Units/ml |
| transglutaminase preparation (culture broth) of Fusarium flocciferum (pool or library) | 0.15 Units/ml |
| transglutaminase preparation (culture broth) of Fusarium merismoides (pool or library) | 0.16 Units/ml |
| transglutaminase preparation (culture broth) of Fusarium redolens (pool or library) | 0.16 Units/ml |
| transglutaminase preparation (culture broth) of Gymnopilus junonius (pool or library) | 0.2 Units/ml |
| transglutaminase preparation (culture broth) of Humicola alopallonella (pool or library) | 0.76 Units/ml |
| transglutaminase preparation (culture broth) of Mucor luteus (pool or library) | 0.34 Units/ml |
| transglutaminase preparation (culture broth) of Myrothecium roridum (pool or library) | 0.13 Units/ml |
| transglutaminase preparation (culture broth) of Neosartorya quadricineta (pool or library) | 0.22 Units/ml |
| transglutaminase preparation (culture broth) of Nidula sp. (pool or library) | 0.14 Units/ml |

Further lines, results first:

| Units/ml (putrescine assay) | Substance |
| --- | --- |
| 0.15 Units/ml | transglutaminase preparation (culture broth) of Agaricus sp. (pool or library) |
| 0.14 Units/ml | transglutaminase preparation (culture broth) of Amanita virosa (pool or library) |
| 0.44 Units/ml | transglutaminase preparation (culture broth) of Amylostereum chailletii (pool or library) |
| 0.62 Units/ml | transglutaminase preparation (culture broth) of Armillaria sp. (pool or library) |
| 0.23 Units/ml | transglutaminase preparation (culture broth) of Aspergillus foetidus (pool or library) |
| 0.19 Units/ml | transglutaminase preparation (culture broth) of Aspergillus giganteus (pool or library) |
| 0.16 Units/ml | transglutaminase preparation (culture broth) of Aspergillus tamarii (pool or library) |
| 0.25 Units/ml | transglutaminase preparation (culture broth) of Beauveria calendonica (pool or library) |
| 0.24 Units/ml | transglutaminase preparation (culture broth) of Beauveria cylindrospora (pool or library) |
| 0.32 Units/ml | transglutaminase preparation (culture broth) of Botryosphaeria rhodina (pool or library) |
| 0.24 Units/ml | transglutaminase preparation (culture broth) of Byssochlamys fulva (pool or library) |
| 0.11 Units/ml | transglutaminase preparation (culture broth) of Carponia solliomaris (pool or library) |
| 1.3 Units/ml | transglutaminase preparation (culture broth) of Cercospora fusimaculans (pool or library) |
| 0.53 Units/ml | transglutaminase preparation (culture broth) of Cercospora traversiana (pool or library) |
| 0.2 Units/ml | transglutaminase preparation (culture broth) of Chamaemyces fracidus (pool or library) |
| 0.22 Units/ml | transglutaminase preparation (culture broth) of Cladosporium cladosporiodes (pool or library) |
| 0.19 Units/ml | transglutaminase preparation (culture broth) of Cladosporium oxysporum (pool or library) |
| 1.07 Units/ml | transglutaminase preparation (culture broth) of Cladosporium sphaeospermum (pool or library) |
| 0.09 Units/ml | transglutaminase preparation (culture broth) of Cochliobolus sativus (pool or library) |

| Units/ml (putrescine assay) | Substance |
| --- | --- |
| 0.13 Units/ml | transglutaminase preparation (culture broth) of Coniothyrium cerealis (pool or library) |
| 0.14 Units/ml | transglutaminase preparation (culture broth) of Coprinus cinereus (pool or library) |
| 0.44 Units/ml | transglutaminase preparation (culture broth) of Coprinus sp. (pool or library) |
| 0.28 Units/ml | transglutaminase preparation (culture broth) of Curvularia borreiae (pool or library) |
| 0.96 Units/ml | transglutaminase preparation (culture broth) of Dendryphiella salina (pool or library) |
| 0.34 Units/ml | transglutaminase preparation (culture broth) of Halosphaeriopsis mediosetigera (pool or library) |
| 0.95 Units/ml | transglutaminase preparation (culture broth) of Hortea werneckii (pool or library) |
| 0.17 Units/ml | transglutaminase preparation (culture broth) of Hygrophoropsis aurantiaca (pool or library) |
| 1.31 Units/ml | transglutaminase preparation (culture broth) of Hymenochaete corticola (pool or library) |
| 0.14 Units/ml | transglutaminase preparation (culture broth) of Hypholoma fasciculare (pool or library) |
| 0.14 Units/ml | transglutaminase preparation (culture broth) of Kuhneromyces variabilis (pool or library) |
| 0.15 Units/ml | transglutaminase preparation (culture broth) of Lignincola sp. (pool or library) |
| 0.36 Units/ml | transglutaminase preparation (culture broth) of Lulworthia uniseptata (pool or library) |
| 0.25 Units/ml | transglutaminase preparation (culture broth) of Lyophyllum sp. (pool or library) |
| 2.31 Units/ml | transglutaminase preparation (culture broth) of Monodictys pelagica (pool or library) |
| 0.31 Units/ml | transglutaminase preparation (culture broth) of Mucor aligarensis (pool or library) |
| 1.2 Units/ml | transglutaminase preparation (culture broth) of Nodulisporium sp. (pool or library) |
| 0.15 Units/ml | transglutaminase preparation (culture broth) of Panaeolus papilionaceus (pool or library) |
